# B1: MutL protein of N. gonorrhoeae FA1090, two-hybrid fusion (mutLNgo gene in pC434, plasmid pAK26) (natural protein)
# chain: MPRIAALPDHLVNQIAAGEVVERPANALKEIVENSIDAGATAVDVELEGGGIRLIRVGDNGGGIHPDDIELALHRHATSKIKTLNDLEHVASMGFRGEGLASIASVSRLTLTSRQEDSSHATQVKAEDGKLSSPTAAAHPVGTTIEAAELFFNTPARRKFLKSENTEYAHCATMLERLALAHPHIAFSLKRDGKQVFKLPAQSLHERIAAIVGDDFQTASLEIDSGNSALRLYGAIAKPTFAKGKTDKQYCFVNHRFVRDKVMLHAVKQAYRDVLHNALTPAFVLFLELPPEAVDVNVHPTKTEIRFRDSRQVHQLVFHTLNKALADTRANLTESVSNAGEVLHDITGVTPAPMPSENDGENLFDSASNHPTGNKPDTRNAFGSSGKTAPMPYQAARAPQQHSLSLRESRAAMDTYAELYKKTDDIDLELSQFEQARFGNMPSETPAHKTDTPLSDGIPSQSELPPLGFAIAQLLGIYILAQAEDSLLLIDMHAAAERVNYEKMKRQRQENGNLQSQHLLIPVTFAASHEECAALADHAETLAGFGLELSDMGGNTLAVRAAPVMLGKSDVVSLARDVLGELAQVGSSQTIASHENRILATMSCHGSIRAGRRLTLPEMNALLRDMENTPRSNQCNHGRPTWVKLTLKELDTLFLRGQ
# B2: MutS protein of N. gonorrhoeae FA1090, two-hybrid fusion used with the MutLNgo fusion (plasmid pAK27) (natural protein, UniProt Q5F5J4 1-864, looked up)
# chain: MSKSAVSPMMQQYLGIKAQHTDKLVFYRMGDFYELFLDDAVEAAKLLDITLTTRGQMDGVPIKMAGVPFHAAEQYLARLVKLGKSVAICEQVGEVGAGKGPVERKVVRIVTPGTLTDSALLEDKETNRIVAVSPDKKYIGLAWASLQSGEFKTKLTTADKLNDELARLQAAEILLPDSKNAPQLQTASGVTRLNAWQFAADAGEKLLTEYFGCQDLRGFGLDSKEHAVSIGAAGALLNYIRLTQNLMPQHLDGLSLETDSQYIGMDAATRRNLEITQTLSGKKTPTLFSILDGCATHMGSRLLALWLHHPLRNRAHIRARQEAVTALESQYEPLQCHLKSIADIERIAARIAVGNARPRDLASLRDSLFELAQIDLSATGSSLLETLKAVFPETLPVAETLKAAVMPEPSVWLKDGNVINHGFHPELDELRRIQNHGDEFLLDLEAKERERTGLSTLKVEFNRVHGFYIELSKTQAEQAPADYQRRQTLKNAERFITPELKAFEDKVLTAQDQALALEKQLFDGVLKNLRTALPQLQKAAKAAAALDVLSTFSALAKERNFVRPEFADYPVVHIENGRHPVVEQQVRHFTANHTDLDHKHRLMLLTGPNMGGKSTYMRQVALIVLLAHTGCFVPADAATIGPVDQIFTRIGASDDLASNRSTFMVEMSETAYILHHATEQSIVLMDEVGRGTSTFDGLALAHAIAEHLLQKNKSFSLFATHYFELTYLPEAHAAAVNMHLSALEQGRDIVFLHQIQPGPAGKSYGIAVAKLAGLPVRALKAAQKHLNGLENQAAANRPQLDIFSTMPSEKGDEPNVDCFVDKAEEKHFEGILAAALENLDPDSLTPREALSELYRLKDLCKSVS
# notes: MutS of Neisseria gonorrhoeae FA1090; mutS gene (2595 bp) amplified from chromosomal DNA and cloned into the SalI-BamHI sites of pC434 and pC22; That pAK27 is the pC22 derivative is inferred: it was paired with the pC434-borne mutLNgo gene; also called gonococcal MutS protein; source: bacterial two-hybrid fusion, expressed in E. coli R721; not shown: N-terminal domain of the repressor of phage …
# B3: MutL protein of N. gonorrhoeae FA1090, His-tagged, purified (plasmid pAK20) (natural protein, UniProt Q5F8M6 1-658, looked up)
# chain: B1 chain
# notes: MutL of Neisseria gonorrhoeae FA1090; mutLNgo gene (1977 bp) amplified from chromosomal DNA with primers MutLfor/MutLNgoR and cloned into the NheI-HindIII sites of pET28a(+); The His-Tag at the amino terminus is encoded by the vector; also called MutLNgo; gonococcal MutL protein; source: E. coli BL21(DE3)pLys (pAK20), autoinduction, purified (Ni-NTA Agarose); not shown: His-Tag, N-terminal, kept
# What was measured:
# [1] = system: MutS (Neisseria gonorrhoeae FA1090); experiment: EMSA; settings: 0.75 uM protein, 1 mM ATP, 10 mM Ca2+, 10 mM Tris-HCl pH 7.5, 10 mM CaCl2, 0.1 mg/ml BSA, 0.15 uM substrate DNA, 0.032 uM competitor DNA, 20 ul, temperature not stated, 5% PAGE with …
# [2] = biological target: V.NgoAXIII endonuclease, two-hybrid fusion (ngoAXIIIV gene in pC22, plasmid pAK24) (N. gonorrhoeae FA1090); experiment: two-hybrid; bacterial two-hybrid system (Di Lallo et al.) in E. coli R721 with lacZ as reporter: fusions to the N-terminal domains of the phage P22 and 434 repressors; an interaction represses β-galactosidase; LB with 0.1 mM IPTG, 37 °C; read-out is the ratio of Miller Units to the plasmid-less strain, a ratio below 0.5 counts as interaction
# [3] = biological target: V.NgoAXIV endonuclease, two-hybrid fusion (ngoAXIVV gene in pC22, plasmid pAK25) (N. gonorrhoeae FA1090); experiment: as above
# [4] = biological target: T1, MutL protein of N. gonorrhoeae FA1090, two-hybrid fusion (mutLNgo gene in pC434, plasmid pAK26) (N. gonorrhoeae FA1090, UniProt Q5F8M6 1-658); experiment: as above; settings: partners not purified
# T1 construct: MutL of Neisseria gonorrhoeae FA1090; mutLNgo gene (1977 bp) amplified from chromosomal DNA and cloned into the SalI-BamHI sites of pC434; also called gonococcal MutL protein; source: bacterial two-hybrid fusion, expressed in E. coli R721; not shown: N-terminal domain of the repressor of phage 434 (from the vector pC434), N-terminal, kept
# T1 sequence (looked up): B1 chain
# [5] = biological target: T2, MutS protein of N. gonorrhoeae FA1090, His-tagged, purified (plasmid pAK21) (N. gonorrhoeae FA1090, UniProt Q5F5J4 1-864); experiment: pull-down; protein affinity chromatography: 250 μg V.NgoAXIII, V.NgoAXIV or MutLNgo coupled to Affi-Gel 10; 250 μg His-tagged MutLNgo or MutS applied in 25 mM Tris pH 7.5, 50 mM NaCl with 2 mM ATP and 5 mM MgCl2; washed with the same buffer, eluted with 250 mM NaCl; fractions blotted with an anti-His-Tag antibody; settings: both partners purified
# T2 construct: MutS of Neisseria gonorrhoeae FA1090; mutS gene (2595 bp) amplified from chromosomal DNA with primers MutSNheI/MutSNgoR and cloned into the NheI-HindIII sites of pET28a(+); The His-Tag at the amino terminus is encoded by the vector; also called gonococcal MutS protein; source: E. coli BL21(DE3)pLys (pAK21), autoinduction, purified (Ni-NTA Agarose); not shown: His-Tag, N-terminal, kept
# T2 sequence (looked up): B2 chain
molecule,measurement,setting,value
"T:G mismatch substrate used with MutS (M.NgoA302P-sub or M.NgoA1175P-sub, not specified)",binding signal,[1],90 % bound
B1,ratio of Miller Units (β-galactosidase activity) to the plasmid-less strain,[2],0.18
same,ratio of Miller Units (β-galactosidase activity) to the plasmid-less strain,[3],0.23
B2,ratio of Miller Units (β-galactosidase activity) to the plasmid-less strain,[4],0.39 ± 0.01
B3,binding result,[5],binds

# Reference: article PMC6116569, “Activity of Vsr endonucleases encoded by Neisseria gonorrhoeae FA1090 is influenced by MutL and MutS proteins” (BMC Microbiology, 2018)
